B1: ILF3_HUMAN (protein, UniProt Q12906 1-894, looked up)
Interleukin enhancer-binding …: MRPMRIFVNDDRHVMAKHSSVYPTQEELEAVQNMVSHTERALKAVSDWIDEQEKGSSEQAESDNMDVPPEDDSKEGAGEQKTEHMTRTLRGVMRVGLVAKGLLLKGDLDLELVLLCKEKPTTALLDKVADNLAIQLAAVTEDKYEILQSVDDAAIVIKNTKEPPLSLTIHLTSPVVREEMEKVLAGETLSVNDPPDVLDRQKCLAALASLRHAKWFQARANGLKSCVIVIRVLRDLCTRVPTWGPLRGWPLELLCEKSIGTANRPMGAGEALRRVLECLASGIVMPDGSGIYDPCEKEATDAIGHLDRQQREDITQSAQHALRLAAFGQLHKVLGMDPLPSKMPKKPKNENPVDYTVQIPPSTTYAITPMKRPMEEDGEEKSPSKKKKKIQKKEEKAEPPQAMNALMRLNQLKPGLQYKLVSQTGPVHAPIFTMSVEVDGNSFEASGPSKKTAKLHVAVKVLQDMGLPTGAEGRDSSKGEDSAEETEAKPAVVAPAPVVEAVSTPSAAFPSDATAEQGPILTKHGKNPVMELNEKRRGLKYELISETGGSHDKRFVMEVEVDGQKFQGAGSNKKVAKAYAALAALEKLFPDTPLALDANKKKRAPVPVRGGPKFAAKPHNPGFGMGGPMHNEVPPPPNLRGRGRGGSIRGRGRGRGFGGANHGGYMNAGAGYGSYGYGGNSATAGYSQFYSNGGHSGNASGGGGGGGGGSSGYGSYYQGDNYNSPVPPKHAGKKQPHGGQQKPSYGSGYQSHQGQQQSYNQSPYSNYGPPQGKQKGYNHGQGSYSYSNSYNSPGGGGGSDYNYESKFNYSGSGGRSGGNSYGSGGASYNPGSHGGYGGGSGGGSSYQGKQGGYSQSNYNSPGSGQNYSGPPSSYQSSQGGYGRNADHSMNYQYR
B2: NU107_HUMAN (protein, UniProt P57740 1-925, looked up)
Nuclear pore complex protein …: MDRSGFGEISSPVIREAEVTRTARKQSAQKRVLLQASQDENFGNTTPRNQVIPRTPSSFRQPFTPTSRSLLRQPDISCILGTGGKSPRLTQSSGFFGNLSMVTNLDDSNWAAAFSSQRSGLFTNTEPHSITEDVTISAVMLREDDPGEAASMSMFSDFLQSFLKHSSSTVFDLVEEYENICGSQVNILSKIVSRATPGLQKFSKTASMLWLLQQEMVTWRLLASLYRDRIQSALEEESVFAVTAVNASEKTVVEALFQRDSLVRQSQLVVDWLESIAKDEIGEFSDNIEFYAKSVYWENTLHTLKQRQLTSYVGSVRPLVTELDPDAPIRQKMPLDDLDREDEVRLLKYLFTLIRAGMTEEAQRLCKRCGQAWRAATLEGWKLYHDPNVNGGTELEPVEGNPYRRIWKISCWRMAEDELFNRYERAIYAALSGNLKQLLPVCDTWEDTVWAYFRVMVDSLVEQEIQTSVATLDETEELPREYLGANWTLEKVFEELQATDKKRVLEENQEHYHIVQKFLILGDIDGLMDEFSKWLSKSRNNLPGHLLRFMTHLILFFRTLGLQTKEEVSIEVLKTYIQLLIREKHTNLIAFYTCHLPQDLAVAQYALFLESVTEFEQRHHCLELAKEADLDVATITKTVVENIRKKDNGEFSHHDLAPALDTGTTEEDRLKIDVIDWLVFDPAQRAEALKQGNAIMRKFLASKKHEAAKEVFVKIPQDSIAEIYNQCEEQGMESPLPAEDDNAIREHLCIRAYLEAHETFNEWFKHMNSVPQKPALIPQPTFTEKVAHEHKEKKYEMDFGIWKGHLDALTADVKEKMYNVLLFVDGGWMVDVREDAKEDHERTHQMVLLRKLCLPMLCFLLHTILHSTGQYQECLQLADMVSSERHKLYLVFSKEELRKLLQKLRESSLMLLDQGLDPLGYEIQL
B3: SYG_HUMAN (protein, UniProt P41250 37-739, looked up)
Glycine--tRNA ligase: SAASCPPISLPAAASRSSMDGAGAEEVLAPLRLAVRQQGDLVRKLKEDKAPQVDVDKAVAELKARKRVLEAKELALQPKDDIVDRAKMEDTLKRRFFYDQAFAIYGGVSGLYDFGPVGCALKNNIIQTWRQHFIQEEQILEIDCTMLTPEPVLKTSGHVDKFADFMVKDVKNGECFRADHLLKAHLQKLMSDKKCSVEKKSEMESVLAQLDNYGQQELADLFVNYNVKSPITGNDLSPPVSFNLMFKTFIGPGGNMPGYLRPETAQGIFLNFKRLLEFNQGKLPFAAAQIGNSFRNEISPRSGLIRVREFTMAEIEHFVDPSEKDHPKFQNVADLHLYLYSAKAQVSGQSARKMRLGDAVEQGVINNTVLGYFIGRIYLYLTKVGISPDKLRFRQHMENEMAHYACDCWDAESKTSYGWIEIVGCADRSCYDLSCHARATKVPLVAEKPLKEPKTVNVVQFEPSKGAIGKAYKKDAKLVMEYLAICDECYITEMEMLLNEKGEFTIETEGKTFQLTKDMINVKRFQKTLYVEEVVPNVIEPSFGLGRIMYTVFEHTFHVREGDEQRTFFSFPAVVAPFKCSVLPLSQNQEFMPFVKELSEALTRHGVSHKVDDSSGSIGRRYARTDEIGVAFGVTIDFDTVNKTPHTATLRDRDSMRQIRAEISELPSIVQDLANGNITWADVEARYPLFEGQETGKKETIEE
B4: LMNB2_HUMAN (protein, UniProt Q03252 1-617, looked up)
Lamin-B2: MSPPSPGRRREQRRPRAAATMATPLPGRAGGPATPLSPTRLSRLQEKEELRELNDRLAHYIDRVRALELENDRLLLKISEKEEVTTREVSGIKALYESELADARRVLDETARERARLQIEIGKLRAELDEVNKSAKKREGELTVAQGRVKDLESLFHRSEVELAAALSDKRGLESDVAELRAQLAKAEDGHAVAKKQLEKETLMRVDLENRCQSLQEELDFRKSVFEEEVRETRRRHERRLVEVDSSRQQEYDFKMAQALEELRSQHDEQVRLYKLELEQTYQAKLDSAKLSSDQNDKAASAAREELKEARMRLESLSYQLSGLQKQASAAEDRIRELEEAMAGERDKFRKMLDAKEQEMTEMRDVMQQQLAEYQELLDVKLALDMEINAYRKLLEGEEERLKLSPSPSSRVTVSRATSSSSGSLSATGRLGRSKRKRLEVEEPLGSGPSVLGTGTGGSGGFHLAQQASASGSVSIEEIDLEGKFVQLKNNSDKDQSLGNWRIKRQVLEGEEIAYKFTPKYILRAGQMVTVWAAGAGVAHSPPSTLVWKGQSSWGTGESFRTVLVNADGEEVAMRTVKKSSVMRENENGEEEEEEAEFGEEDLFHQQGDPRTTSRGC
B5: P66A_HUMAN (protein, UniProt Q86YP4 1-633, looked up)
Transcriptional repressor …: MTEEACRTRSQKRALERDPTEDDVESKKIKMERGLLASDLNTDGDMRVTPEPGAGPTQGLLRATEATAMAMGRGEGLVGDGPVDMRTSHSDMKSERRPPSPDVIVLSDNEQPSSPRVNGLTTVALKETSTEALMKSSPEERERMIKQLKEELRLEEAKLVLLKKLRQSQIQKEATAQKPTGSVGSTVTTPPPLVRGTQNIPAGKPSLQTSSARMPGSVIPPPLVRGGQQASSKLGPQASSQVVMPPLVRGAQQIHSIRQHSSTGPPPLLLAPRASVPSVQIQGQRIIQQGLIRVANVPNTSLLVNIPQPTPASLKGTTATSAQANSTPTSVASVVTSAESPASRQAAAKLALRKQLEKTLLEIPPPKPPAPEMNFLPSAANNEFIYLVGLEEVVQNLLETQGRMSAATVLSREPYMCAQCKTDFTCRWREEKSGAIMCENCMTTNQKKALKVEHTSRLKAAFVKALQQEQEIEQRLLQQGTAPAQAKAEPTAAPHPVLKQVIKPRRKLAFRSGEARDWSNGAVLQASSQLSRGSATTPRGVLHTFSPSPKLQNSASATALVSRTGRHSERTVSAGKGSATSNWKKTPLSTGGTLAFVSPSLAVHKSSSAVDRQREYLLDMIPPRSIPQSATWK
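Note: lysates from HEK293T cells pretreated with a KDM4 inhibitor to raise proteome methylation, affinity-purified after ±UV, gel-resolved, trypsin-digested, with exclusive unique peptides per protein averaged per condition.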

Each molecule was assayed on KDM4A-I71AzF (assay: CASI: photo-crosslinking with HEK293T cell extracts, StrepTactin enrichment and LC-MS/MS proteomics). Conditions: sheet "Final results but with 0.01".
Assay type: binding, human
B1 was tested, and the “Fold change (+UV/-UV)” value was 0.5. In the case of B2, the “Fold change (+UV/-UV)” value is reported as 2. With B3 the “Fold change (+UV/-UV)” value was 1. With B4 the “Fold change (+UV/-UV)” value was 0.5. B5 was tested, and the “Fold change (+UV/-UV)” value was 1.5.

From publication PMC10540216, “Activity Guided Azide-methyllysine Photo-trapping for Substrate Profiling of Lysine Demethylases” (Journal of the American Chemical Society, 2023)
